Source: US20130166268

System: full-length rat proMMP9(1-708) (SEQ ID NO:11)
Sequence (chain, as listed by the source): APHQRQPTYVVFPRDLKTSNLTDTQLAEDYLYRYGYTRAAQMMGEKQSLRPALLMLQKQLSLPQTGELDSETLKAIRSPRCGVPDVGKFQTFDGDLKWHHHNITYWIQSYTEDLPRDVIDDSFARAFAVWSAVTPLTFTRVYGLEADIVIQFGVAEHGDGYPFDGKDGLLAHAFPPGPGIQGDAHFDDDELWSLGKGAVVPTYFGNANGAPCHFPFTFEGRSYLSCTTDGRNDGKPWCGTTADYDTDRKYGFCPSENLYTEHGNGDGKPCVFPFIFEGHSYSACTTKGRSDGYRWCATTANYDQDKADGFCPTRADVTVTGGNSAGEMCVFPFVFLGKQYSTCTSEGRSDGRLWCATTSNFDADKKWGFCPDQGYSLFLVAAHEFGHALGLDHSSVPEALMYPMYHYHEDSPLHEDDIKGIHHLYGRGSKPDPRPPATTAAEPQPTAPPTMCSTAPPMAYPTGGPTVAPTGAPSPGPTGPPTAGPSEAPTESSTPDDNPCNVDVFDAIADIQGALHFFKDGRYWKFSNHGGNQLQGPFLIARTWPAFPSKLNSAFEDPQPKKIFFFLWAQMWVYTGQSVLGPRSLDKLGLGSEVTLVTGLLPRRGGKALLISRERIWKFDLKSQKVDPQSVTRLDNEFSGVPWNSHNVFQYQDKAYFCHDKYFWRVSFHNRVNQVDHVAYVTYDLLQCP

human catalytic MMP3, MMP3(100-265) (SEQ ID NO:8), sequence (chain, as listed by the source): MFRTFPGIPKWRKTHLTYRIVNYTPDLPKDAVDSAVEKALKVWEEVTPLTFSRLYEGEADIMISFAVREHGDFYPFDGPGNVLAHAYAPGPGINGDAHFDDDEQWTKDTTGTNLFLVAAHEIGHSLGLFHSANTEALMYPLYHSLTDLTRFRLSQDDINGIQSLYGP

human catalytic MMP3, MMP3(100-265) (SEQ ID NO:8)
conversion of proMMP9 to catalytic MMP9 (Western blot standard): full-length rat proMMP9(1-708) (SEQ ID NO:11) converted to catalytic rat MMP9 by catalytic MMP3
